# Laboratory results as given in paper PMC3771942 (Molecular Biology of the Cell, 2013).
# Target: GST-Rho-G17A (UniProt P61586 1-193, G17A)
# Assay: pull-down
# Chain of GST-Rho-G17A (P61586 whole entry G17A): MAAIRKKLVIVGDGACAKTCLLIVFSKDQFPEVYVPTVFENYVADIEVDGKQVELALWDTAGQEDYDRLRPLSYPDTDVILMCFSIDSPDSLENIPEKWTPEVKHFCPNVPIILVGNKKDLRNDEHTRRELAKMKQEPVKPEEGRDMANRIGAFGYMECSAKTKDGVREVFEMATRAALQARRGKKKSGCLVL
binder,measurement,value
"mCh-LARG-W769A (natural protein, UniProt Q9NZN5 1-1544, looked up) MSGTQSTITDRFPLKKPIRHGSILNRESPTDKKQKVERIASHDFDPTDSSSKKTKSSSEESRSEIYGLVQRCVIIQKDDNGFGLTVSGDNPVFVQSVKEDGAAMRAGVQTGDRIIKVNGTLVTHSNHLEVVKLIKSGSYVALTVQGRPPGSPQIPLADSEVEPSVIGHMSPIMTSPHSPGASGNMERITSPVLMGEENNVVHNQKVEILRKMLQKEQERLQLLQEDYNRTPAQRLLKEIQEAKKHIPQLQEQLSKATGSAQDGAVVTPSRPLGDTLTVSEAETDPGDVLGRTDCSSGDASRPSSDNADSPKSGPKERIYLEENPEKSETIQDTDTQSLVGSPSTRIAPHIIGAEDDDFGTEHEQINGQCSCFQSIELLKSRPAHLAVFLHHVVSQFDPATLLCYLYSDLYKHTNSKETRRIFLEFHQFFLDRSAHLKVSVPDEMSADLEKRRPELIPEDLHRHYIQTMQERVHPEVQRHLEDFRQKRSMGLTLAESELTKLDAERDKDRLTLEKERTCAEQIVAKIEEVLMTAQAVEEDKSSTMQYVILMYMKHLGVKVKEPRNLEHKRGRIGFLPKIKQSMKKDKEGEEKGKRRGFPSILGPPRRPSRHDNSAIGRAMELQKARHPKHLSTPSSVSPEPQDSAKLRQSGLANEGTDAGYLPANSMSSVASGASFSQEGGKENDTGSKQVGETSAPGDTLDGTPRTLNTVFDFPPPPLDQVQEEECEVERVTEHGTPKPFRKFDSVAFGESQSEDEQFENDLETDPPNAQQLVSREVLLGLKPCEIKRQEVINELFYTERAHVRTLKVLDQVFYQRVSREGILSPSELRKIFSNLEDILQLHIGLNEQMKAVRKRNETSVIDQIGEDLLTWFSGPGEEKLKHAAATFCSNQPFALEMIKSRQKKDSRFQTFVQDAESNPLCRRLQLKDIIPTQMQRLTKYPLLLDNIAKYTEWPTEREKVKKAADHCRQILNYVNQAVKEAENKQRLEDYQRRLDTSSLKLSEYPNVEELRNLDLTKRKMIHEGPLVWKVNRDKTIDLYTLLLEDILVLLQKQDDRLVLRCHSKILASTADSKHTFSPVIKLSTVLVRQVATDNKALFVISMSDNGAQIYELVAQTVSEKTVWQDLICRMAASVKEQSTKPIPLPQSTPGEGDNDEEDPSKLKEEQHGISVTGLQSPDRDLGLESTLISSKPQSHSLSTSGKSEVRDLFVAERQFAKEQHTDGTLKEVGEDYQIAIPDSHLPVSEERWALDALRNLGLLKQLLVQQLGLTEKSVQEDWQHFPRYRTASQGPQTDSVIQNSENIKAYHSGEGHMPFRTGTGDIATCYSPRTSTESFAPRDSVGLAPQDSQASNILVMDHMIMTPEMPTMEPEGGLDDSGEHFFDAREAHSDENPSEGDGAVNKEEKDVNLRISGNYLILDGYDPVQESSTDEEVASSLTLQPMTGIPAVESTHQQQHSPQNTHSDGAISPFTPEFLVQQRWGAMEYSCFEIQSPSSCADSQSQIMEYIHKIEADLEHLKKVEESYTILCQRLAGSALTDKHSDKS",fold decrease in pull down against wild-type LARG,5 fold
